Results published in US20230021840A1, “USE OF GP73 INHIBITOR IN PREPARATION OF MEDICINE FOR TREATING DIABETES” (BEIJING SUNGEN BIOMEDICAL TECHNOLOGY CO. LTD., priority 2020, published 2023).
“Also recorded” adds a separate entry of the source. Each block holds one molecule with its values, some of them ahead of it.

Assays:
[1] = biological target: glucagon (UniProt P01275); assay: SPR, Reichert 4SPR
[2] = biological target: glucagon (UniProt P01275); assay: OpenSPR, GP73 coupled to amine sensor chip, glucagon in mobile phase
[3] = biological target: glucagon (UniProt P01275); assay: microscale thermophoresis (MST), His-tagged GP73 labelled with RED-tris-NTA, GCG titrated
[4] = test system: mice with type II diabetes; assay: GP73 siRNA treatment of high-fat-diet-induced mice with type II diabetes; format: in vivo, C57BL/6N mice; conditions: for HbA1c: serum
Description: 2. In the present invention, the detection method of glucose in mice is as follows: all blood samples were collected from the tail, and the blood glucose was tested by a full-automatic glucometer (ACCU-CHEK; Roche) through a glucose oxidase method; normal mice and diabetic mice were fasting for 6 h, and fasting blood glucose was tested; the random blood glucose level was tested at 9:00 am; and when the blood glucose level is greater than 35 mM (the upper limit of glucometer), it was recorded as 35 mM.
3. In the present invention, the detection method of the glycometabolism experiment is as follows: In the glucose, insulin and pyruvate tolerance tests, mice were fasting for 12 h and then injected with D-glucose (Sigma, Art. No.: G8270, 1.5 g/kg body weight), insulin (Sigma, Art. No.: 19278, 0.75 U/kg body weight) or sodium pyruvate (Sigma, Art. No.: P2256, 2 g/kg body weight) at […]; at 0 min, 15 min, 30 min, 45 min, 60 min, 120 min and 24 h after injection, blood was collected from the tail vein of mice, and blood glucose was tested to determine the intraperitoneal glucose tolerance (IPGTT), pyruvate tolerance (PTT) and insulin tolerance (ITT).
Experimental method: On this basis, C57BL/6N mice (male, 8-10 weeks old, 20-22 g) were selected, and after feeding high-fat diet for 20 weeks, the animals were fasting for 6 h, and the fasting blood glucose was tested. […] According to the fasting blood glucose, the mice were randomly divided into the Ctr siRNA group and the GP73 siRNA experimental group, 6 mice per group. The mice were first injected with 4 nM at the tail vein, and then intraperitoneally injected with 4 nM, once every 5 days. The mice were sacrificed 4 weeks after the first injection, and the indicators such as blood glucose and glycated hemoglobin were detected.

[5] = test system: endogenous GP73; assay: Knockdown of endogenous GP73 in H22 cells (western blotting); format: cell-based; conditions: H22 mouse liver cells; 24 h after transfection
Description: Experimental method: A total of 9 RNAi oligos (Table 7, SEQ ID NOs. 1-9) targeting different sites of mouse GP73 were firstly synthesized, and H22 mouse liver cells were transfected and collected for the western blotting experiments 24 h after transfection.

[6] = biological target: T1, GCG (Homo sapiens, UniProt P01275); assay: Affinity of recombinant soluble GP73 and GCG by Reichert 4SPR; format: binding
T1 construct: purchased MCE HY-P0082

[7] = biological target: T1, GCG; assay: Affinity of recombinant soluble GP73 and GCG by microscale thermophoresis (MST); format: binding
[8] = biological target: T1, GCG; assay: Affinity of recombinant soluble GP73 and GCG by OpenSPR; format: binding
[9] = test system: PKA; assay: PKA phosphorylation and kinase activity in HepG2 cells (western blotting); format: cell-based; conditions: versus PBS control

Sequence of glucagon (P01275 53-81 limits assumed): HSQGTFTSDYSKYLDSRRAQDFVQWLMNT

Kd [1]: 1550 nM
Kd [2]: 3210 nM
Kd [3]: 410 nM
Molecule: recombinant mouse soluble GP73

Kd [1]: 350 nM
Kd [3]: 120 nM
Molecule: recombinant monkey soluble GP73

Molecule: Ctr siRNA: RNAi oligos with disrupted sequences used as control, AUCACACCAACACAGGUCCTT (chemistry not given here)
ALT ([4]; 4 weeks after treatment): 77 ± 22
AST ([4]; 4 weeks after treatment): 243 ± 65
CHO ([4]; 4 weeks after treatment): 5.62 ± 0.97
TG ([4]; 4 weeks after treatment): 1.27 ± 0.37
HbA1c ([4]; 4 weeks after treatment): 4.39±0.67%
HbA1c ([4]; 4 weeks after treatment, listed as Ctrl siRNA): 4.39 ± 0.67%
Fasting blood glucose ([4]; Week 0): 12.0 ± 1.7 mM
Fasting blood glucose ([4]; Week 4, injection once every 5 days): 12.2 ± 3.0 mM

Kd [1]: 730 nM
Kd [2]: 3190 nM
Kd [3]: 580 nM
Molecule: recombinant rat soluble GP73

Molecule: No. 4: GP73 siRNA 995-CCAACAGGCAUCCAUCCAATT (unmodified) (2'-OMe throughout, phosphorothioates at both ends, 3'-cholesterol, counts not given here)
Knockdown efficiency of endogenous GP73 [5]: good knockdown efficiency

Kd [6]: 2830 nM
Kd [7]: 2450 nM
Kd [8]: 2800 nM
B1: rhsGP73: recombinant human soluble GP73, NCBI Reference Sequence NP_057632.2 (protein)
chain: AAAERGAVELKKNEFQGELEKQREQLDKIQSSHNFQLESVNKLYQDEKAVLVNNITTGERLIRVLQDQLKTLQRNYGRLQQDVLQFQKNQTNLERKFSYDLSQCINQMKEVKEQCEERIEEVTKKGNEAVASRDLSENNDQRQQLQALSEPQPRLQAAGLPHTEVPQGKGNVLGNSKSQTPAPSSEVVLDSKRQVEKEETNEIQVVNEEPQRDRLPQEPGREQVVEDRPVGGRGFGGAGELGQTPQVQAALSVSQENPEMEGPERDQLVIPDGQEEEQEAAGEGRNQQKLRGEDDYNMDENEAESETDKQAALAGNDRNIDVFNVEDQKRDTINLLDQREKRNHTL
PKA phosphorylation level (PKA-p) and kinase activity (RRXρS/T) [9]: significantly up-regulated; also recorded: promotes the phosphorylation level (PKA-p) and kinase activity
